Results: publication PMC3676522 (Synapse (New York, N.Y.), 2011)

Columns and labels:
DA transporter (DAT) = DA transporter (DAT) (Rattus norvegicus, UniProt P23977); test: [3H]DA uptake into rat striatal synaptosomes; type: biochemical
human DAT = human DAT (Homo sapiens, UniProt Q01959); test: Dissociation of [3H]WIN 35,428 binding from HEK/hDAT cells; settings: for Dissociation rate K−1 of [3H]WIN 35,428 binding (single component model): experiment B
human DAT, sequence (Q01959 whole entry): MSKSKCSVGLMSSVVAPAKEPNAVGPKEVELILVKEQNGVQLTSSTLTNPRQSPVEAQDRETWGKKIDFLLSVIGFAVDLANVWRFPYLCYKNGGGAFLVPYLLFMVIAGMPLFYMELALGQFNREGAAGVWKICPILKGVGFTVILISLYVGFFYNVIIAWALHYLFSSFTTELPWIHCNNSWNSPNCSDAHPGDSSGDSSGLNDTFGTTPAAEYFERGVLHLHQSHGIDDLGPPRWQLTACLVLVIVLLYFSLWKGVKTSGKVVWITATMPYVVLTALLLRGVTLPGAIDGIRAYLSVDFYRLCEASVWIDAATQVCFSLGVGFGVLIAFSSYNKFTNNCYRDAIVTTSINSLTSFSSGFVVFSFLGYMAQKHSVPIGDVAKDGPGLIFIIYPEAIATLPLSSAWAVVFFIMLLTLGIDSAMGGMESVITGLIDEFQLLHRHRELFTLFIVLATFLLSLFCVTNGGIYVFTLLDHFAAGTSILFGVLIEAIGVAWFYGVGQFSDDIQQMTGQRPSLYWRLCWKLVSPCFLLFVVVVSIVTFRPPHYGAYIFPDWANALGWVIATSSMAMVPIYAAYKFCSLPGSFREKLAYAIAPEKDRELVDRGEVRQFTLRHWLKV

DA transporter (DAT), sequence (P23977 whole entry): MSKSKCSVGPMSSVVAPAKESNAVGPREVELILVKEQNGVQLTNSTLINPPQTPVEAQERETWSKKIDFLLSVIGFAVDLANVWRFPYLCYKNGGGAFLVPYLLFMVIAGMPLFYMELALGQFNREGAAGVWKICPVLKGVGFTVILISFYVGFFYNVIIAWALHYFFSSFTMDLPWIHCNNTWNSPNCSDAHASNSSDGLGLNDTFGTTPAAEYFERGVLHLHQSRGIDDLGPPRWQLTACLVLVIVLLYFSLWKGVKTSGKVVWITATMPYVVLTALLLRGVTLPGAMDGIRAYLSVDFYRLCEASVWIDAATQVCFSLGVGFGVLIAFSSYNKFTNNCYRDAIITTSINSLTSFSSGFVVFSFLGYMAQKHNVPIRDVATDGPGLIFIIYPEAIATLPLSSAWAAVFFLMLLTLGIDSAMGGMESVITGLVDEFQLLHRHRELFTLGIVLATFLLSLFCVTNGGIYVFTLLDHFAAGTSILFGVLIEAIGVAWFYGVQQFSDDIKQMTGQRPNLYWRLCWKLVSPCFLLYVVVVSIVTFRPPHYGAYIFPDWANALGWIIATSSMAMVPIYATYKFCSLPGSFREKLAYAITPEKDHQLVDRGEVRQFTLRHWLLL

Molecule: COC(=O)[C@H]1[C@@H](OC(=O)c2ccccc2)C[C@@H]2CC[C@H]1N2C [Cocaine]
- Specific Uptake (percentage of control) (DA transporter (DAT); control (cocaine alone)): 100%

Molecule: CN[C@@H]1C[C@@H](c2ccc(Cl)c(Cl)c2)c2ccccc21.Cl [Indatraline, indatraline hydrochloride]
- Specific Uptake (percentage of control) (DA transporter (DAT); indatraline 10 nM, control = cocaine alone): 33%

B1: Tat: Recombinant HIV-1 Tat1-86 protein, LA1/Bru strain of HIV-1 clade B, Genbank accession no. K02013 (protein)
chain: MEPVDPRLEPWKHPGSQPKTACTTCYCKKCCFHCQVCFTTKALGISYGRKKRRQRRRPPQGSQTHQVSLSKQPTSQPRGDPTGPKE
- Specific Uptake (percentage of control) (DA transporter (DAT); Tat 5 μM, control = cocaine alone): 45%
- Dissociation rate of [3H]WIN 35,428 relative to that observed with cocaine alone (human DAT; Tat added after cocaine): 25%
- Dissociation rate K−1 of [3H]WIN 35,428 binding (single component model) (human DAT; condition-2: cocaine 10 μM at time 0, Tat 5 μM added 5 min later): 0.08 ± 0.005 min⁻¹
- Dissociation rate K−1 of [3H]WIN 35,428 binding (single component model) (human DAT; condition-3: Tat 5 μM alone): 0.03 ± 0.009 min⁻¹
